Results on 94 variants are retold here after the supplement of paper PMC10567573.

First the molecules themselves.
B1: MYBL2 (parent)
chain: FPNRTDQQCQYRWLRVLNPDLVKG
B2: PTPRD (parent)
chain: PVVSMDLDPQPITDEEEGLIWVVG
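Further: lentivirally expressed fusions sorted by FACS into six bins by GFP to DsRed ratio, PSI derived from sequencing read proportions per bin multiplied by bin number.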

Variants of B1 are the subject of one data set. As to the kind of experiment: protein stability index of a GFP-peptide fusion (GPS, HEK-293T) (PSI 1-6); higher = more stable. The following applies: c terminus: a fixed tail appended.
Take FPNRTDQQCQMRWLRVLNPDLVKG: the protein stability index was 2.12.

As to FPNGTDQQCQYRWLRVLNPDLVKG, the protein stability index came to 1.74.

For FPNVTDQQCQYRWLRVLNPDLVKG, the protein stability index came to 1.96.

In the case of FPNYTDQQCQYRWLRVLNPDLVKG, the protein stability index came to 1.98.

The next data set covers variants of B2. The data set is described as above. The following applies: c terminus: a fixed tail appended.
In the case of PVVSKDLDPQPITDEEEGLIWVVG, the protein stability index was 4.64.

For the variant PVVSGDLDPQPITDEEEGLIWVVG, the protein stability index came to 5.16.

As for PVVSYDLDPQPITDEEEGLIWVVG, the protein stability index was 3.54.

Regarding PVVSADLDPQPITDEEEGLIWVVG, the protein stability index was 4.97.

Consider PVVSNDLDPQPITDEEEGLIWVVG, for which the protein stability index stood at 4.7.

For the variant PVVSQDLDPQPITDEEEGLIWVVG, the protein stability index was determined as 4.62.

In the case of PVVSCDLDPQPITDEEEGLIWVVG, the protein stability index is 4.64.

In the case of PVVSTDLDPQPITDEEEGLIWVVG, the protein stability index came out at 4.01.

With PVVSDDLDPQPITDEEEGLIWVVG, the protein stability index stood at 4.71.

PVVSHDLDPQPITDEEEGLIWVVG: the protein stability index was determined as 4.66.

For the variant PVVSRDLDPQPITDEEEGLIWVVG, the protein stability index turned out to be 4.31.

For the variant PVVSVDLDPQPITDEEEGLIWVVG, the protein stability index was 3.92.

PVVSWDLDPQPITDEEEGLIWVVG: the protein stability index came to 3.51.

Consider PVVSLDLDPQPITDEEEGLIWVVG, for which the protein stability index is 3.97.

Regarding PVVSSDLDPQPITDEEEGLIWVVG, the protein stability index is 3.77.

With PVVSFDLDPQPITDEEEGLIWVVG, the protein stability index is 3.48.

As to PFVSMDLDPQPITDEEEGLIWVVG, the protein stability index was 3.16.

PHVSMDLDPQPITDEEEGLIWVVG: the protein stability index was determined as 3.67.

PEVSMDLDPQPITDEEEGLIWVVG: the protein stability index was determined as 4.23.

As to PIVSMDLDPQPITDEEEGLIWVVG, the protein stability index worked out at 3.05.

As to PCVSMDLDPQPITDEEEGLIWVVG, the protein stability index stood at 4.26.

Turning to PKVSMDLDPQPITDEEEGLIWVVG, the protein stability index came to 2.77.

Regarding PYVSMDLDPQPITDEEEGLIWVVG, the protein stability index worked out at 3.56.

For the variant PDVSMDLDPQPITDEEEGLIWVVG, the protein stability index came to 3.95.

As to PLVSMDLDPQPITDEEEGLIWVVG, the protein stability index is 3.93.

In the case of PAVSMDLDPQPITDEEEGLIWVVG, the protein stability index is 4.31.

In the case of PNVSMDLDPQPITDEEEGLIWVVG, the protein stability index is 3.84.

With PMVSMDLDPQPITDEEEGLIWVVG, the protein stability index worked out at 4.2.

As for PGVSMDLDPQPITDEEEGLIWVVG, the protein stability index was determined as 4.23.

Turning to PPVSMDLDPQPITDEEEGLIWVVG, the protein stability index is 4.05.

Regarding PQVSMDLDPQPITDEEEGLIWVVG, the protein stability index was 3.94.

Regarding PRVSMDLDPQPITDEEEGLIWVVG, the protein stability index was 4.6.

Turning to PSVSMDLDPQPITDEEEGLIWVVG, the protein stability index worked out at 4.51.

On to PTVSMDLDPQPITDEEEGLIWVVG, for which the protein stability index is 4.09.

As for RVVSMDLDPQPITDEEEGLIWVVG, the protein stability index came out at 2.62.

On to WVVSMDLDPQPITDEEEGLIWVVG, for which the protein stability index came to 2.17.

With LVVSMDLDPQPITDEEEGLIWVVG, the protein stability index amounted to 1.79.

As to GVVSMDLDPQPITDEEEGLIWVVG, the protein stability index was found to be 3.77.

Turning to QVVSMDLDPQPITDEEEGLIWVVG, the protein stability index was found to be 3.81.

Regarding DVVSMDLDPQPITDEEEGLIWVVG, the protein stability index amounted to 4.28.

As for YVVSMDLDPQPITDEEEGLIWVVG, the protein stability index was determined as 1.52.

Consider NVVSMDLDPQPITDEEEGLIWVVG, for which the protein stability index is 3.58.

HVVSMDLDPQPITDEEEGLIWVVG: the protein stability index amounted to 3.02.

On to CVVSMDLDPQPITDEEEGLIWVVG, for which the protein stability index is 3.12.

Take VVVSMDLDPQPITDEEEGLIWVVG: the protein stability index was found to be 1.86.

With TVVSMDLDPQPITDEEEGLIWVVG, the protein stability index worked out at 2.22.

As to FVVSMDLDPQPITDEEEGLIWVVG, the protein stability index is 1.19.

As for EVVSMDLDPQPITDEEEGLIWVVG, the protein stability index was 3.2.

For the variant PVVSMKLDPQPITDEEEGLIWVVG, the protein stability index is 2.99.

Take PVVSMELDPQPITDEEEGLIWVVG: the protein stability index came to 4.24.

In the case of PVVSMHLDPQPITDEEEGLIWVVG, the protein stability index was 3.24.

In the case of PVVSMILDPQPITDEEEGLIWVVG, the protein stability index was determined as 2.56.

Consider PVVSMALDPQPITDEEEGLIWVVG, for which the protein stability index is 4.22.

PVVSMCLDPQPITDEEEGLIWVVG: the protein stability index turned out to be 3.6.

As for PVVSMFLDPQPITDEEEGLIWVVG, the protein stability index is 2.36.

With PVVSMLLDPQPITDEEEGLIWVVG, the protein stability index was 3.35.

Consider PVASMDLDPQPITDEEEGLIWVVG, for which the protein stability index turned out to be 3.17.

As to PVYSMDLDPQPITDEEEGLIWVVG, the protein stability index worked out at 3.88.

Turning to PVESMDLDPQPITDEEEGLIWVVG, the protein stability index was 4.81.

As to PVISMDLDPQPITDEEEGLIWVVG, the protein stability index came out at 3.49.

Take PVDSMDLDPQPITDEEEGLIWVVG: the protein stability index was 3.91.

Consider PVLSMDLDPQPITDEEEGLIWVVG, for which the protein stability index came out at 3.74.

As for PVPSMDLDPQPITDEEEGLIWVVG, the protein stability index was 3.82.

On to PVHSMDLDPQPITDEEEGLIWVVG, for which the protein stability index came out at 3.38.

Regarding PVNSMDLDPQPITDEEEGLIWVVG, the protein stability index worked out at 3.92.

Take PVKSMDLDPQPITDEEEGLIWVVG: the protein stability index was found to be 3.48.

Regarding PVSSMDLDPQPITDEEEGLIWVVG, the protein stability index turned out to be 3.18.

Consider PVGSMDLDPQPITDEEEGLIWVVG, for which the protein stability index came out at 3.98.

With PVMSMDLDPQPITDEEEGLIWVVG, the protein stability index was determined as 3.61.

For the variant PVWSMDLDPQPITDEEEGLIWVVG, the protein stability index came out at 4.09.

For the variant PVQSMDLDPQPITDEEEGLIWVVG, the protein stability index was found to be 3.87.

With PVFSMDLDPQPITDEEEGLIWVVG, the protein stability index was found to be 3.86.

In the case of PVTSMDLDPQPITDEEEGLIWVVG, the protein stability index was determined as 4.66.

In the case of PVVRMDLDPQPITDEEEGLIWVVG, the protein stability index was determined as 3.82.

As to PVVYMDLDPQPITDEEEGLIWVVG, the protein stability index was determined as 1.99.

On to PVVGMDLDPQPITDEEEGLIWVVG, for which the protein stability index is 4.17.

Regarding PVVEMDLDPQPITDEEEGLIWVVG, the protein stability index worked out at 5.11.

PVVCMDLDPQPITDEEEGLIWVVG: the protein stability index turned out to be 3.56.

With PVVDMDLDPQPITDEEEGLIWVVG, the protein stability index came out at 3.92.

As for PVVQMDLDPQPITDEEEGLIWVVG, the protein stability index was 4.02.

On to PVVHMDLDPQPITDEEEGLIWVVG, for which the protein stability index turned out to be 3.31.

In the case of PVVTMDLDPQPITDEEEGLIWVVG, the protein stability index turned out to be 3.73.

Turning to PVVVMDLDPQPITDEEEGLIWVVG, the protein stability index is 2.42.

On to PVVMMDLDPQPITDEEEGLIWVVG, for which the protein stability index came out at 2.75.

Consider PVVLMDLDPQPITDEEEGLIWVVG, for which the protein stability index was 2.89.

As to PVVWMDLDPQPITDEEEGLIWVVG, the protein stability index turned out to be 1.83.

For PVVPMDLDPQPITDEEEGLIWVVG, the protein stability index is 4.45.

Regarding PVVFMDLDPQPITDEEEGLIWVVG, the protein stability index came out at 2.65.

As for PVVNMDLDPQPITDEEEGLIWVVG, the protein stability index is 4.01.

Regarding PVVIMDLDPQPITDEEEGLIWVVG, the protein stability index was found to be 2.28.
